# Reference: the Immune Epitope Database (IEDB)
# Experiments:
# HLA-B*15:03 = assay: IEDB peptide-MHC binding, purified MHC/competitive/radioactivity; filed as Kd, often an IC50 or EC50 that approximates it; ≥ and ≤ were set here for values at or beyond the usual limits of such assays
# HLA-A*24:03 = assay: IEDB peptide-MHC binding, purified MHC/direct/fluorescence; filed as Kd, often an IC50 or EC50 that approximates it; ≥ and ≤ were set here for values at or beyond the usual limits of such assays
# HLA-A*24:02 = assay: IEDB peptide-MHC binding, purified MHC/competitive/radioactivity; filed as Kd, often an IC50 or EC50 that approximates it; ≥ and ≤ were set here for values at or beyond the usual limits of such assays; details: source organism: Mammarenavirus juninense
# HLA-A*29:02 = assay: as above; details: source organism: Mammarenavirus juninense
# HLA-A*23:01 = assay: as above; details: source organism: Mammarenavirus juninense
# HLA-A*11:01 [1] = assay: as above
# HLA-A*68:01 = assay: as above
# HLA-B*54:01 = assay: as above
# HLA-A*31:01 = assay: as above
# HLA-A*33:01 = assay: as above
# HLA-B*51:01 = assay: as above
# HLA-A*03:01 [2] = assay: as above
# HLA-B*07:02 [3] = assay: as above
# HLA-B*35:01 = assay: as above
# HLA-B*53:01 = assay: as above
# HLA-A*11:01 [4] = assay: IEDB peptide-MHC binding, purified MHC/direct/fluorescence; filed as Kd, often an IC50 or EC50 that approximates it; ≥ and ≤ were set here for values at or beyond the usual limits of such assays
# HLA-B*15:01 [5] = assay: as above
# HLA-A*03:01 [6] = assay: as above
# HLA-B*07:02 [7] = assay: as above
# HLA-A*69:01 = assay: as above
# HLA-B*58:01 = assay: as above
# HLA-A*01:01 = assay: as above
# HLA-B*40:01 = assay: as above
# HLA-B*08:01 [8] = assay: as above
# HLA-A*26:01 = assay: as above
# HLA-A*02:01 [9] = assay: as above
# HLA-B*27:05 = assay: as above
# HLA-B*57:01 = assay: as above
# HLA-B*15:17 = assay: as above
# HLA-A*02:01 [10] = assay: IEDB peptide-MHC binding, purified MHC/competitive/fluorescence; filed as Kd, often an IC50 or EC50 that approximates it; ≥ and ≤ were set here for values at or beyond the usual limits of such assays; details: source organism: Vaccinia virus Copenhagen
# HLA-A*32:01 = assay: IEDB peptide-MHC binding, purified MHC/competitive/radioactivity; filed as Kd, often an IC50 or EC50 that approximates it; ≥ and ≤ were set here for values at or beyond the usual limits of such assays
# HLA-B*44:02 = assay: IEDB peptide-MHC binding, purified MHC/direct/fluorescence; filed as Kd, often an IC50 or EC50 that approximates it; ≥ and ≤ were set here for values at or beyond the usual limits of such assays; details: source organism: Vibrio cholerae
# HLA-B*15:01 [11] = assay: IEDB peptide-MHC binding, purified MHC/competitive/radioactivity; filed as Kd, often an IC50 or EC50 that approximates it; ≥ and ≤ were set here for values at or beyond the usual limits of such assays
# HLA-A*30:01 = assay: as above; details: source organism: Vaccinia virus WR
# HLA-B*08:01 [12] = assay: as above; details: source organism: Vaccinia virus WR
# [13] = source organism: Vaccinia virus WR
# [14] = source organism: Vaccinia virus Copenhagen
# [15] = source organism: Haemophilus influenzae
# [16] = source organism: Brucella melitensis
# [17] = source organism: Marburg virus - Musoke, Kenya, 1980
# [18] = source organism: Lake Victoria marburgvirus - Popp
# [19] = source organism: Mammarenavirus lassaense
# [20] = source organism: Vibrio cholerae
sequence,measurement,setting,value
IQHNFTQIA,Kd,HLA-B*15:03; [13],0.251 nM
VLFLQQSIF,Kd,HLA-B*15:03; [13],0.61 nM
LYTVKYPNL,Kd,HLA-A*24:03; source organism: Mammarenavirus machupoense,30.1 nM
same,Kd,HLA-A*24:02,2430 nM
same,Kd,HLA-A*29:02,≥ 23500 nM
same,Kd,HLA-A*23:01,230 nM
SATYATVPF,Kd,HLA-B*15:03; [14],12 nM
NLYSFTIVF,Kd,HLA-B*15:03; [14],31.2 nM
ILMIFISSFL,Kd,HLA-A*11:01 [1]; [13],1780 nM
same,Kd,HLA-A*68:01; [13],989 nM
same,Kd,HLA-B*54:01; [13],1500 nM
same,Kd,HLA-A*31:01; [13],625 nM
same,Kd,HLA-A*33:01; [13],966 nM
same,Kd,HLA-B*51:01; [13],4910 nM
same,Kd,HLA-A*03:01 [2]; [13],397 nM
same,Kd,HLA-B*07:02 [3]; [13],16800 nM
same,Kd,HLA-B*35:01; [13],3050 nM
same,Kd,HLA-B*53:01; [13],1250 nM
VYFSPWFFL,Kd,HLA-A*24:03; [15],19.7 nM
same,Kd,HLA-A*11:01 [4]; [15],≥ 20000 nM
same,Kd,HLA-B*15:01 [5]; [15],≥ 20000 nM
same,Kd,HLA-A*03:01 [6]; [15],≥ 20000 nM
same,Kd,HLA-B*07:02 [7]; [15],≥ 20000 nM
same,Kd,HLA-A*69:01; [15],≥ 20000 nM
same,Kd,HLA-B*58:01; [15],≥ 20000 nM
same,Kd,HLA-A*01:01; [15],≥ 20000 nM
same,Kd,HLA-B*40:01; [15],≥ 20000 nM
same,Kd,HLA-B*08:01 [8]; [15],≥ 20000 nM
same,Kd,HLA-A*26:01; [15],≥ 20000 nM
same,Kd,HLA-A*02:01 [9]; [15],≥ 20000 nM
same,Kd,HLA-B*27:05; [15],≥ 20000 nM
FAAMIIRSF,Kd,HLA-B*15:03; [13],1.33 nM
LSVPAAIMM,Kd,HLA-B*15:03; [13],68.5 nM
LPVYFGSVF,Kd,HLA-B*15:03; [13],123 nM
RAYSVPETF,Kd,HLA-B*57:01; [16],41.8 nM
same,Kd,HLA-B*58:01; [16],14.5 nM
same,Kd,HLA-B*15:17; [16],≤ 1 nM
KAGVRGWFL,Kd,HLA-B*57:01; [16],71.5 nM
same,Kd,HLA-B*58:01; [16],225 nM
same,Kd,HLA-B*15:17; [16],2280 nM
FQRKPFNNI,Kd,HLA-B*15:03; [13],8.9 nM
SSNAKNSEW,Kd,HLA-B*57:01; [17],135 nM
same,Kd,HLA-B*58:01; [17],69.9 nM
same,Kd,HLA-B*15:17; [17],2.7 nM
KSPDVHEDF,Kd,HLA-B*57:01; [18],566 nM
same,Kd,HLA-B*58:01; [18],921 nM
same,Kd,HLA-B*15:17; [18],≥ 20000 nM
FLIVSLCPT,Kd,HLA-A*11:01 [1]; [14],≥ 48100 nM
same,Kd,HLA-A*68:01; [14],5310 nM
same,Kd,HLA-B*54:01; [14],359 nM
same,Kd,HLA-A*31:01; [14],3230 nM
same,Kd,HLA-A*33:01; [14],6550 nM
same,Kd,HLA-B*51:01; [14],≥ 28600 nM
same,Kd,HLA-A*03:01 [2]; [14],2590 nM
same,Kd,HLA-B*07:02 [3]; [14],12000 nM
same,Kd,HLA-B*35:01; [14],16000 nM
same,Kd,HLA-B*53:01; [14],6210 nM
same,Kd,HLA-A*02:01 [10],0.3 nM
FYSSFVQTF,Kd,HLA-B*15:03; [13],38.8 nM
MTVVSAVHF,Kd,HLA-A*32:01; [13],1940 nM
same,Kd,HLA-B*15:03; [13],278 nM
CPFLFLIVL,Kd,HLA-B*54:01; [19],1520 nM
same,Kd,HLA-B*51:01; [19],≥ 54700 nM
same,Kd,HLA-B*07:02 [3]; [19],≥ 77400 nM
same,Kd,HLA-B*35:01; [19],414 nM
same,Kd,HLA-B*53:01; [19],14100 nM
AYLLQHLDL,Kd,HLA-A*24:03; [20],1.53 nM
same,Kd,HLA-A*11:01 [4]; [20],≥ 20000 nM
same,Kd,HLA-B*15:01 [5]; [20],≥ 20000 nM
same,Kd,HLA-B*44:02,≥ 20000 nM
same,Kd,HLA-A*03:01 [6]; [20],≥ 20000 nM
same,Kd,HLA-B*07:02 [7]; [20],≥ 20000 nM
same,Kd,HLA-A*69:01; [20],≥ 20000 nM
same,Kd,HLA-B*58:01; [20],≥ 20000 nM
same,Kd,HLA-A*01:01; [20],≥ 20000 nM
same,Kd,HLA-B*40:01; [20],≥ 20000 nM
same,Kd,HLA-B*08:01 [8]; [20],≥ 20000 nM
same,Kd,HLA-A*26:01; [20],≥ 20000 nM
same,Kd,HLA-A*02:01 [9]; [20],≥ 20000 nM
same,Kd,HLA-B*27:05; [20],≥ 20000 nM
LQNSVVLQF,Kd,HLA-A*32:01; [14],7.33 nM
same,Kd,HLA-B*15:01 [11]; [14],1.51 nM
same,Kd,HLA-B*15:03; [14],6.22 nM
KWKYENPCK,Kd,HLA-A*32:01; [13],≥ 59000 nM
same,Kd,HLA-A*30:01,15 nM
same,Kd,HLA-B*15:01 [11]; [13],≥ 78100 nM
same,Kd,HLA-B*15:03; [13],296 nM
same,Kd,HLA-B*08:01 [12],≥ 50900 nM
DPTFQLLNMI,Kd,HLA-B*54:01; [13],≥ 27100 nM
same,Kd,HLA-B*51:01; [13],4990 nM
same,Kd,HLA-B*07:02 [3]; [13],≥ 69600 nM
same,Kd,HLA-B*35:01; [13],≥ 69900 nM
same,Kd,HLA-B*53:01; [13],12600 nM
FQTVNFNNA,Kd,HLA-A*32:01; [13],≥ 50900 nM
same,Kd,HLA-A*30:01,115 nM
same,Kd,HLA-B*15:01 [11]; [13],8180 nM
same,Kd,HLA-B*15:03; [13],305 nM
same,Kd,HLA-B*08:01 [12],16000 nM
ILMIFISSF,Kd,HLA-A*32:01; [13],86.7 nM
same,Kd,HLA-B*15:03; [13],11.9 nM
KSSLNISGY,Kd,HLA-B*57:01; [19],574 nM
same,Kd,HLA-B*58:01; [19],37.7 nM
same,Kd,HLA-B*15:17; [19],1.6 nM
KTKETNRIY,Kd,HLA-A*30:01,10.7 nM
same,Kd,HLA-B*15:03; [13],172 nM
